{
  "source": "patent US20130253037",
  "key": {"[1]": {"biological_target": "6-His-PHLDA1 (recombinant, E. coli) (UniProt Q8WV24)", "sequence (Q8WV24 whole entry)": "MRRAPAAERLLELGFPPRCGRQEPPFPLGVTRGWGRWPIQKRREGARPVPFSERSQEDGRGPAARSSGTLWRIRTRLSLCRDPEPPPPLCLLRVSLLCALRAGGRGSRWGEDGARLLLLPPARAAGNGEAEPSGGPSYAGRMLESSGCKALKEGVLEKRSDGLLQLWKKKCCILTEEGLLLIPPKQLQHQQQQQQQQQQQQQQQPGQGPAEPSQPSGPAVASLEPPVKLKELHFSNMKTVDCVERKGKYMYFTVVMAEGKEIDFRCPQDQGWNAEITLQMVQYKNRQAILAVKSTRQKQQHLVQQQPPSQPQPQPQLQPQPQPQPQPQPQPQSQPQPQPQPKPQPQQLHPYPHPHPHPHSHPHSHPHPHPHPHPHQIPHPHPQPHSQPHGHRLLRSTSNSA"}, "[2]": {"biological_target": "6-His-LIMK2 (recombinant, E. coli) (UniProt P53671)", "sequence (P53671 whole entry, looked up)": "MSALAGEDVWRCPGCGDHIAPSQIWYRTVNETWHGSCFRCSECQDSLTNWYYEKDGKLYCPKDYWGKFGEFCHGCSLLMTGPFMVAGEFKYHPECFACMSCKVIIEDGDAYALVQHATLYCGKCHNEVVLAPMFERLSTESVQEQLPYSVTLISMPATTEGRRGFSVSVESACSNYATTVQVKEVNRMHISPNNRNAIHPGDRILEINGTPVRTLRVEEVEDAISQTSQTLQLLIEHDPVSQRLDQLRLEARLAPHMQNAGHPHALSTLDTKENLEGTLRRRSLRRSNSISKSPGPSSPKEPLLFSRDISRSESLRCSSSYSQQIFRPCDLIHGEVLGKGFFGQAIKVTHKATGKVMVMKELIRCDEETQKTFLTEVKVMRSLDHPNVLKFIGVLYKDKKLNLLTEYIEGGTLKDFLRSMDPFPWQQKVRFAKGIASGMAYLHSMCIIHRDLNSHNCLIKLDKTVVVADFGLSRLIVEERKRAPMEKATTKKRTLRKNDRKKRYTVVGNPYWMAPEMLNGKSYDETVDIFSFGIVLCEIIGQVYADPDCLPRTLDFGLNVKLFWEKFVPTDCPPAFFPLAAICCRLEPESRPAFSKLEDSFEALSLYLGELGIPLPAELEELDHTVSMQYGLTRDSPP"}},
  "data": [
    {"substance": "6-His-Aurora-A (recombinant, wild type, from Sf9 insect cells)", "values": [
      {"measurement": "in vitro kinase assay, cofilin phosphorylation with [32P] ATP", "setting": "6-His-cofilin", "value": "Aurora A does not phosphorylate cofilin (FIG. 6H, lanes 1 and 4)"},
      {"measurement": "in vitro kinase assay with Aurora A/TPX2 and [γ-32P]ATP (phosphorylation of PHLDA1)", "setting": "[1]", "value": "Aurora A directly phosphorylated PHLDA1 (FIG. 1A, lane 2)"},
      {"measurement": "in vitro phosphorylation of wild-type, Ser78A and Ser98A PHLDA1 alleles by Aurora A/TPX2", "setting": "[1]", "value": "Aurora A was found to predominantly phosphorylate PHLDA1 at Ser98 (FIG. 2C)"},
      {"measurement": "LIMK2 kinase activity (cofilin phosphorylation) after pre-incubation with Aurora A", "setting": "[2]", "value": "LIMK2 preincubated with Aurora A showed increased kinase activity (lane 2)"},
      {"measurement": "in vitro kinase assay with recombinant Aurora A/TPX2 and 6-His-LIMK2 (phosphorylation of LIMK2)", "setting": "[2]", "value": "Aurora A directly phosphorylates LIMK2 (FIG. 5A, lane 2)"},
      {"measurement": "in vitro phosphorylation of wild-type, S283A, T494A and T505A LIMK2 alleles by Aurora A/TPX2", "setting": "[2]", "value": "Aurora A phosphorylates LIMK2 at all these sites (FIG. 8A)"}
    ]}
  ]
}
